The target in assay [1] is T1, HA-GCN4 hAPRIL (amino acid residues 105-250) (human, UniProt O75888 105-250).
T1 construct: Bought (R&D Systems); also called HA-tagged GCN4 human APRIL; HA-GCN4-huAPRIL; not shown: N-terminal HA tag; GCN4 isoleucine zipper oligomerization domain
T1 sequence: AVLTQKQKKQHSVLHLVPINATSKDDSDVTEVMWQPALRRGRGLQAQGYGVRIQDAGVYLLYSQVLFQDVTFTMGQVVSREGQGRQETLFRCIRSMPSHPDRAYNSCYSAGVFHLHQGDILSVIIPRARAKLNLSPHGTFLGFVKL
As to the kind of experiment: blocking ELISA; blocked: human APRIL binding to human BCMA-Fc. Also noted: concentration or dose not given beside the values. The procedure:
(§1) Recombinant TACI-Fc or BCMA-Fc was coated on 96 well plates in 0.1 M carbonate-bicarbonate buffer (pH 9.6), overnight at 4° C. Plates were washed three times with 1×PBST (PBS+0.025% Tween 20) followed by blocking with 1% BSA in 1×PBS, 37° C. for 1 hour. All subsequent wash steps were carried out with 1×PBST. To assess antibody blocking, either 15 ng/mL or 50 ng/mL HA-GCN4-huAPRIL was preincubated with varying antibody concentrations ranging from 0.03-30 μg/mL in binding buffer comprised of 1% BSA and 0.025% Tween-20 in 1×PBS. Preincubation was carried out at 30° C. for 1 hour with mixing. Antibody-APRIL premix with 50 ng/mL APRIL or 15 ng/mL APRIL was then added to TACI-Fc coated or BCMA-Fc coated plates, respectively, and incubated for an additional hour at 30° C. HA-tagged APRIL binding to either receptor was quantified using a goat polyclonal anti-HA tag-HRP antibody (Abcam) added at a 1:10000 dilution followed by colorimetric development using 100 μl/well of freshly prepared TMB substrate (KPL) carried out for up to 30 minutes at room temperature before quenching enzymatic reaction by the addition of 1N sulfuric acid. ELISA signal was quantified by absorbance at 450 nm. ELISA data was analyzed by non-linear regression. IC₅₀ values were calculated based on a 4 parameter fit of antibody titration curves. […] Non-blocking antibodies Aprly-1 or Aprly-5 (Enzo Biosciences) were used as negative controls. Mouse specific, blocking antibody aprily-1-1 (Adipogen) was generally used as a positive control in experiments using mouse APRIL (HA-GCN4-mAPRIL).
For orientation: An ELISA detects its analyte on a solid surface through an enzyme-linked reagent.

The target of assay [2] is T1, HA-GCN4 hAPRIL (amino acid residues …). In words: blocking ELISA, 4-parameter fit; blocked: human APRIL binding to human TACI-Fc. The procedure:
as §1

Assay [3] shares this target. As to the kind of experiment: blocking ELISA, 4-parameter fit; blocked: human APRIL binding to human BCMA-Fc. How it is done: as §1
The target is the same in assay [4]. As to the kind of experiment: blocking ELISA; blocked: human APRIL binding to human TACI-Fc. Also noted: concentration or dose not given beside the values. How it is done:
as §1

For assay [5] the target is unchanged. As to the kind of experiment: blocking ELISA; blocked: human APRIL binding to TACI-Fc.
Assay [6] has the same target. In words: ELISA on trimeric (GCN4-stabilised) human APRIL. The text has this:
APRIL trimer was stabilized by the N-terminal fusion of APRIL with an isoleucine zipper (GCN4) oligomerization domain Binding of APRIL to human TACI-Fc is shown for comparative purposes.

Assay [7] shares this target. In words: blocking ELISA; blocked: human APRIL binding to BCMA-Fc. How it is done: as §1
Assay is based on receptor blocking ELISA using recombinant human APRIL (R&D Systems) and either human TACI-Fc (FIG. 30A) or BCMA-Fc (FIG. 30B).

Assay [8] has the same target. In words: cell-based or functional assay.
For assay [9] the target is unchanged. In words: indirect ELISA on human APRIL.

Positions count from the first letter of the chain named.

B1: monoclonal antibody 3327 (antibody, V domains shown)
VH: EVQLQQSGPELVKPGASVKMSCKASGYSFTGYFMNWVKQSHGKSLEWIGRINPYNGDTFYNQKFKGKATLTVDKSSSTAHMELRSLTSEDSALYYCASEGDGYYWYFDVWGAGTTVTVSS
VL: not shown
As a reminder, the % Inhibition is the relative decrease from the control value, in per cent. One may read the IC50 as the concentration that inhibits the measured activity by half. On to B1, for which the “% Inhibition” value in assay [1] amounted to 99%; in assay [4] it was 89%. Further, the figures for the IC50 in [2] and in assay [3] were 3160 pM and 2350 pM, respectively.

B2: monoclonal antibody 4035-062 (antibody, IgG1, V domains shown)
VH: QVQLQESGPGLVKPSETLSLTCTVSGFSLTIYDVHWVRQPPGKGLEWIGVIWSDGSTDYNPSLKSRVTISKDTSKNQVSLKLSSVTAADTAVYYCARNWVDQAWFAYWGQGTLVTVSS
VL: DIQMTQSPSSLSASVGDRVTITCRASKNIYSYLAWYQQKPGKAPKLLVYNAKTLPEGVPSRFSGSGSGTDFTLTISSLQPEDFATYYCQHHYGTPLTFGQGTKLEIK
Usually EC50 stands for the concentration giving half of the maximal effect. With B2, in assay [5], the half-inhibitory concentration (IC50) worked out at 260 pM and the “Relative Activity (normalised to 2419)” value came to 0.93. For the same molecule, the concentration for a half-maximal effect (EC50) in [6] was found to be 13.5 pM. Besides, in assay [7], the IC50 was 100 pM and the “Relative Activity (normalised to 2419)” value was found to be 0.41. Also, in assay [8], the “IC50 (inhibition of APRIL-mediated BCMA NFκB signaling)” value is about 380 pM and the “IC50 (inhibition of APRIL-mediated TACI NFκB signaling)” value was about 1020 pM. In addition, the EC50 in [9] is 1.28 pM.

B3: monoclonal antibody 2419-1406 (antibody, V domains shown)
VH: QVQLVQSGAEVKKPGASVKVSCKASGYTFTDYTIHWVRQATGQGLEWMGWIYPLRGSINYAQKFQGRVTMTADKSISTVYMELSSLRSEDTAVYFCARHGAYYSNAFDYWGQGTLVTVSS
VL: EIVMTQSPATLSVSPGERATLSCRASESVDNDGIRFLHWYQQKPGQAPRLLIYRASTRATGIPARFSGSGSRTEFTLTISSLQSEDFAVYYCQQSNKDPYTFGGGTKVEIK
For the molecule B3, the IC50 came out at 240 pM in assay [5] and 110 pM in [7]. The “Relative Activity (normalised to 2419)” value stood at 0.88 in [5] and 0.47 in [7]. Also, the half-maximal effective concentration (EC50) in [6] turned out to be 38.4 pM; in assay [9], 3.34 pM.

B4: monoclonal antibody 2419-0205 (antibody, IgG2, V domains shown)
VH: B3 VH with A16S, T41P, M70I, I76T, V79A
VL: B3 VL with T57N, A59E, R72G
Take B4: in assay [5], the half-maximal inhibitory concentration (IC50) is 310 pM and the “Relative Activity (normalised to 2419)” value came out at 1.12. Further, in assay [7], the IC50 turned out to be 170 pM and the “Relative Activity (normalised to 2419)” value was determined as 0.71. Moreover, in assay [8], the “IC50 (inhibition of APRIL-mediated BCMA NFκB signaling)” value was about 320 pM and the “IC50 (inhibition of APRIL-mediated TACI NFκB signaling)” value was about 810 pM. In assay [9], this molecule yielded an EC50 of 2.26 pM.

B5: 2419-1306 (antibody, V domains shown)
VH: B3 VH with D73N
VL: B3 VL
Regarding B5, in assay [5], the IC50 is 280 pM and the “Relative Activity (normalised to 2419)” value amounted to 1.03. Further, in assay [7], the IC50 is 170 pM and the “Relative Activity (normalised to 2419)” value came to 0.72. Moreover, in assay [8], the “IC50 (inhibition of APRIL-mediated BCMA NFκB signaling)” value is about 300 pM and the “IC50 (inhibition of APRIL-mediated TACI NFκB signaling)” value was about 660 pM. The same molecule showed a 50% effective concentration (EC50) in [9] of 3 pM.

B6: HuTACI-Fc-001 (Fc fusion, human, UniProt O14836 29-110, looked up)
chain: VAMRSCPEEQYWDPLLGTCMSCKTICNHQSQRTCAAFCRSLSCRKEQGKFYDHLLRDCISCASICGQHPKQCAYFCENKLRS
notes: range 29-110; also called human TACI-Fc; recombinant TACI-Fc; not shown: Fc portion of human IgG1 beginning at position E98 in CH1
B6 returned an EC50 in assay [6] of 103 pM.

These data come from patent publication US20170145086A1 (VISTERRA, published 2017).
